# Reference: patent US6124449
# Columns and labels:
# [1] = molecular target: TGF-beta1 (hTGF-beta1) (Homo sapiens) (UniProt P01137); test: filter
# [2] = molecular target: TGF-beta1 (hTGF-beta1) (Homo sapiens) (UniProt P01137); test: cell_activity; conditions: 2'-F C and U; MLEC assay; sequence contains N; column inferred
# TGF-beta1 (hTGF-beta1) (Homo sapiens), sequence (P01137 279-390): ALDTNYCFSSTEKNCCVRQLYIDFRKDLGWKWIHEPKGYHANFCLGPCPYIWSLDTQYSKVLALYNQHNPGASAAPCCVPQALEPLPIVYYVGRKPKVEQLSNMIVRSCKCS
sequence,measurement,setting,value
GGGAGGACGAUGCGGUUAACCNUAAAUACGGCUUGANUUCUUCCGCAGACGACUCGCCCGA [30-19],Kd,"[1]; 2'-F C and U, biphasic, Kd1 5.7±1.9 nM",0.346 nM
GGGAGGACGAUGCGGGACCNUUGUNUGCGAUUCAACUCGUAGGUCUUCUCACGUGCAGACGACUCGCCCGA [40-75],Ki,[2],2.25 nM
GGGAGGACGAUGCGGNNNNNNNNNNNNNNNNNNNNNNNNNNNNNNNNNNNNNNNNCAGACGACUCGCCCGA [random 40N7 RNA pool],Kd,"[1]; 2'-F C and U (RNA transcript of template), random 2'-F RNA, DPBS, 1 mM MgCl2, 37 C",10 nM
